Results as given in patent US20160120951A1 (ZEALAND PHARMA A S, published 2016).
Numbered stars: 1 amine (or outer) side, 2 acyl side, 3 side chain; on linkers, the order of the positions; unused ones are H or OH. Square brackets hold non-standard residues; d marks the D form. Side chains are listed from the residue outwards. * marks the point of attachment. isoGlu = used interchangeably with γ-Glu; γGlu = O=C(O)[C@H](CCC(=O)[*:2])N[*:1]; Palmitoyl = CCCCCCCCCCCCCCCC(=O)*; Aib = CC(C)(N)C(=O)O

B1: Compound 22 (peptide)
peptide: H-H[Aib]EGTFTSDYSKYLDSK([γGlu-Palmitoyl])AAHDFVEWLLSA-NH2
SMILES: CCCCCCCCCCCCCCCC(=O)N[C@@H](CCC(=O)NCCCC[C@H](NC(=O)[C@H](CO)NC(=O)[C@H](CC(=O)O)NC(=O)[C@H](CC(C)C)NC(=O)[C@H](Cc1ccc(O)cc1)NC(=O)[C@H](CCCCN)NC(=O)[C@H](CO)NC(=O)[C@H](Cc1ccc(O)cc1)NC(=O)[C@H](CC(=O)O)NC(=O)[C@H](CO)NC(=O)[C@@H](NC(=O)[C@H](Cc1ccccc1)NC(=O)[C@@H](NC(=O)CNC(=O)[C@H](CCC(=O)O)NC(=O)C(C)(C)NC(=O)[C@@H](N)Cc1c[nH]cn1)[C@@H](C)O)[C@@H](C)O)C(=O)N[C@@H](C)C(=O)N[C@@H](C)C(=O)N[C@@H](Cc1c[nH]cn1)C(=O)N[C@@H](CC(=O)O)C(=O)N[C@@H](Cc1ccccc1)C(=O)N[C@H](C(=O)N[C@@H](CCC(=O)O)C(=O)N[C@@H](Cc1c[nH]c2ccccc12)C(=O)N[C@@H](CC(C)C)C(=O)N[C@@H](CC(C)C)C(=O)N[C@@H](CO)C(=O)N[C@@H](C)C(N)=O)C(C)C)C(=O)O
B2: Compound 37 (peptide)
peptide: H-H[Aib]QGTFTSDYSKYLDSKAAHDFVEWLLK([isoGlu-Palmitoyl])A-NH2
B3: Compound 23 (peptide)
peptide: HXQGTFTSDYSKYLDSKAAHDFVEWLLSA
modifications: Aib at position 2; K(Hexadecanoyl) at position 17; C-terminal amide (NH2)
B4: Compound 20 (peptide)
peptide: H-H[Aib]EGTFTSDYSKYLDSK([γGlu-Palmitoyl])AAHDFVEWLLSA-OH
SMILES: CCCCCCCCCCCCCCCC(=O)N[C@@H](CCC(=O)NCCCC[C@H](NC(=O)[C@H](CO)NC(=O)[C@H](CC(=O)O)NC(=O)[C@H](CC(C)C)NC(=O)[C@H](Cc1ccc(O)cc1)NC(=O)[C@H](CCCCN)NC(=O)[C@H](CO)NC(=O)[C@H](Cc1ccc(O)cc1)NC(=O)[C@H](CC(=O)O)NC(=O)[C@H](CO)NC(=O)[C@@H](NC(=O)[C@H](Cc1ccccc1)NC(=O)[C@@H](NC(=O)CNC(=O)[C@H](CCC(=O)O)NC(=O)C(C)(C)NC(=O)[C@@H](N)Cc1c[nH]cn1)[C@@H](C)O)[C@@H](C)O)C(=O)N[C@@H](C)C(=O)N[C@@H](C)C(=O)N[C@@H](Cc1c[nH]cn1)C(=O)N[C@@H](CC(=O)O)C(=O)N[C@@H](Cc1ccccc1)C(=O)N[C@H](C(=O)N[C@@H](CCC(=O)O)C(=O)N[C@@H](Cc1c[nH]c2ccccc12)C(=O)N[C@@H](CC(C)C)C(=O)N[C@@H](CC(C)C)C(=O)N[C@@H](CO)C(=O)N[C@@H](C)C(=O)O)C(C)C)C(=O)O
B5: Compound 19 (peptide)
peptide: H-H[Aib]QGTFTSDYSKYLDSK([γGlu-Palmitoyl])AAHDFVEWLL-OH
SMILES: CCCCCCCCCCCCCCCC(=O)N[C@@H](CCC(=O)NCCCC[C@H](NC(=O)[C@H](CO)NC(=O)[C@H](CC(=O)O)NC(=O)[C@H](CC(C)C)NC(=O)[C@H](Cc1ccc(O)cc1)NC(=O)[C@H](CCCCN)NC(=O)[C@H](CO)NC(=O)[C@H](Cc1ccc(O)cc1)NC(=O)[C@H](CC(=O)O)NC(=O)[C@H](CO)NC(=O)[C@@H](NC(=O)[C@H](Cc1ccccc1)NC(=O)[C@@H](NC(=O)CNC(=O)[C@H](CCC(N)=O)NC(=O)C(C)(C)NC(=O)[C@@H](N)Cc1c[nH]cn1)[C@@H](C)O)[C@@H](C)O)C(=O)N[C@@H](C)C(=O)N[C@@H](C)C(=O)N[C@@H](Cc1c[nH]cn1)C(=O)N[C@@H](CC(=O)O)C(=O)N[C@@H](Cc1ccccc1)C(=O)N[C@H](C(=O)N[C@@H](CCC(=O)O)C(=O)N[C@@H](Cc1c[nH]c2ccccc12)C(=O)N[C@@H](CC(C)C)C(=O)N[C@@H](CC(C)C)C(=O)O)C(C)C)C(=O)O
B6: Compound 29 (peptide)
peptide: HXQGTFTSDYSKYLDSKAAHDFVEWLLSA
modifications: Aib at position 2; K(Hexadecanoyl-[8-Aminooctanoyl]) at position 17; C-terminal amide (NH2)
B7: Compound 24 (peptide)
peptide: HXQGTFTSDYSKYLDSKAAHDFVEWLLSA
modifications: Aib at position 2; K([2-Butyloctanoyl]-isoGlu) at position 17; C-terminal amide (NH2)
B8: Compound 35 (peptide)
peptide: H-H[Aib]QGTFTSDYSKYLDSKAAK([γGlu-Palmitoyl])DFVEWLLSA-NH2
SMILES: CCCCCCCCCCCCCCCC(=O)N[C@@H](CCC(=O)NCCCC[C@H](NC(=O)[C@H](C)NC(=O)[C@H](C)NC(=O)[C@H](CCCCN)NC(=O)[C@H](CO)NC(=O)[C@H](CC(=O)O)NC(=O)[C@H](CC(C)C)NC(=O)[C@H](Cc1ccc(O)cc1)NC(=O)[C@H](CCCCN)NC(=O)[C@H](CO)NC(=O)[C@H](Cc1ccc(O)cc1)NC(=O)[C@H](CC(=O)O)NC(=O)[C@H](CO)NC(=O)[C@@H](NC(=O)[C@H](Cc1ccccc1)NC(=O)[C@@H](NC(=O)CNC(=O)[C@H](CCC(N)=O)NC(=O)C(C)(C)NC(=O)[C@@H](N)Cc1c[nH]cn1)[C@@H](C)O)[C@@H](C)O)C(=O)N[C@@H](CC(=O)O)C(=O)N[C@@H](Cc1ccccc1)C(=O)N[C@H](C(=O)N[C@@H](CCC(=O)O)C(=O)N[C@@H](Cc1c[nH]c2ccccc12)C(=O)N[C@@H](CC(C)C)C(=O)N[C@@H](CC(C)C)C(=O)N[C@@H](CO)C(=O)N[C@@H](C)C(N)=O)C(C)C)C(=O)O
B9: Compound 21 (peptide)
peptide: HXQGTFTSDYSKYLDSKAAHDFVEWLLSA
modifications: Aib at position 2; K(Hexadecanoyl-isoGlu) at position 17; free C-terminal acid (OH)
B10: Compound 27 (peptide)
peptide: HXQGTFTSDYSKYLDSKAAHDFVEWLLSA
modifications: Aib at position 2; K(Hexadecanoyl-[4-Aminobutanoyl]) at position 17; C-terminal amide (NH2)
B11: Compound 25 (peptide)
peptide: HXQGTFTSDYSKYLDSKAAHDFVEWLLSA
modifications: Aib at position 2; K(Octadecanoyl-isoGlu) at position 17; C-terminal amide (NH2)
B12: Compound 18 (peptide)
peptide: H-H[Aib]QGTFTSDYSKYLDSK([γGlu-Palmitoyl])AAHDFVEWLLS-OH
SMILES: CCCCCCCCCCCCCCCC(=O)N[C@@H](CCC(=O)NCCCC[C@H](NC(=O)[C@H](CO)NC(=O)[C@H](CC(=O)O)NC(=O)[C@H](CC(C)C)NC(=O)[C@H](Cc1ccc(O)cc1)NC(=O)[C@H](CCCCN)NC(=O)[C@H](CO)NC(=O)[C@H](Cc1ccc(O)cc1)NC(=O)[C@H](CC(=O)O)NC(=O)[C@H](CO)NC(=O)[C@@H](NC(=O)[C@H](Cc1ccccc1)NC(=O)[C@@H](NC(=O)CNC(=O)[C@H](CCC(N)=O)NC(=O)C(C)(C)NC(=O)[C@@H](N)Cc1c[nH]cn1)[C@@H](C)O)[C@@H](C)O)C(=O)N[C@@H](C)C(=O)N[C@@H](C)C(=O)N[C@@H](Cc1c[nH]cn1)C(=O)N[C@@H](CC(=O)O)C(=O)N[C@@H](Cc1ccccc1)C(=O)N[C@H](C(=O)N[C@@H](CCC(=O)O)C(=O)N[C@@H](Cc1c[nH]c2ccccc12)C(=O)N[C@@H](CC(C)C)C(=O)N[C@@H](CC(C)C)C(=O)N[C@@H](CO)C(=O)O)C(C)C)C(=O)O
B13: Compound 33 (peptide)
peptide: HXQGTFTSDYSKYLDSKAAHDFVEWLLSA
modifications: Aib at position 2; K(Hexadecanoyl-isoGlu) at position 12; C-terminal amide (NH2)
B14: Compound 32 (peptide)
peptide: HXQGTFTSDYSKYLDSXAAHDFVEWLLSA
modifications: Aib at position 2; Orn(Hexadecanoyl-isoGlu) at position 17; C-terminal amide (NH2)
B15: Compound 30 (peptide)
peptide: HXQGTFTSDYSKYLDSKAAHDFVEWLLSA
modifications: Aib at position 2; K(Hexadecanoyl-isoLys) at position 17; C-terminal amide (NH2)
B16: Compound 36 (peptide)
peptide: H-H[Aib]QGTFTSDYSKYLDSKAAHDFVK([isoGlu-Palmitoyl])WLLSA-NH2
B17: Compound 28 (peptide)
peptide: HXQGTFTSDYSKYLDSKAAHDFVEWLLSA
modifications: Aib at position 2; K(Hexadecanoyl-E) (Hexadecanoyl-αGlu) at position 17; C-terminal amide (NH2)
B18: Compound 26 (peptide)
peptide: HXQGTFTSDYSKYLDSKAAHDFVEWLLSA
modifications: Aib at position 2; K(Dodecanoyl-isoGlu) at position 17; C-terminal amide (NH2)
B19: Compound 34 (peptide)
peptide: H-H[Aib]QGTFTSDYSKYLDK([γGlu-Palmitoyl])KAAHDFVEWLLSA-NH2
SMILES: CCCCCCCCCCCCCCCC(=O)N[C@@H](CCC(=O)NCCCC[C@H](NC(=O)[C@H](CC(=O)O)NC(=O)[C@H](CC(C)C)NC(=O)[C@H](Cc1ccc(O)cc1)NC(=O)[C@H](CCCCN)NC(=O)[C@H](CO)NC(=O)[C@H](Cc1ccc(O)cc1)NC(=O)[C@H](CC(=O)O)NC(=O)[C@H](CO)NC(=O)[C@@H](NC(=O)[C@H](Cc1ccccc1)NC(=O)[C@@H](NC(=O)CNC(=O)[C@H](CCC(N)=O)NC(=O)C(C)(C)NC(=O)[C@@H](N)Cc1c[nH]cn1)[C@@H](C)O)[C@@H](C)O)C(=O)N[C@@H](CCCCN)C(=O)N[C@@H](C)C(=O)N[C@@H](C)C(=O)N[C@@H](Cc1c[nH]cn1)C(=O)N[C@@H](CC(=O)O)C(=O)N[C@@H](Cc1ccccc1)C(=O)N[C@H](C(=O)N[C@@H](CCC(=O)O)C(=O)N[C@@H](Cc1c[nH]c2ccccc12)C(=O)N[C@@H](CC(C)C)C(=O)N[C@@H](CC(C)C)C(=O)N[C@@H](CO)C(=O)N[C@@H](C)C(N)=O)C(C)C)C(=O)O
B20: Compound 31 (peptide)
peptide: HXQGTFTSDYSKYLDSKAAHDFVEWLLSA
modifications: Aib at position 2; K(Hexadecanoyl-[3-Aminopropanoyl]) at position 17; C-terminal amide (NH2)
B21: Compound 39 (peptide)
peptide: H-H[Aib]QGTFTSDYSKYLDSK([isoGlu-Palmitoyl])AAKDFVEWLLSA-NH2

Molecular target: human glucagon-like peptide 1 receptor (GLP-1R) (human, UniProt P43220 24-463)
Sequence (P43220 24-463): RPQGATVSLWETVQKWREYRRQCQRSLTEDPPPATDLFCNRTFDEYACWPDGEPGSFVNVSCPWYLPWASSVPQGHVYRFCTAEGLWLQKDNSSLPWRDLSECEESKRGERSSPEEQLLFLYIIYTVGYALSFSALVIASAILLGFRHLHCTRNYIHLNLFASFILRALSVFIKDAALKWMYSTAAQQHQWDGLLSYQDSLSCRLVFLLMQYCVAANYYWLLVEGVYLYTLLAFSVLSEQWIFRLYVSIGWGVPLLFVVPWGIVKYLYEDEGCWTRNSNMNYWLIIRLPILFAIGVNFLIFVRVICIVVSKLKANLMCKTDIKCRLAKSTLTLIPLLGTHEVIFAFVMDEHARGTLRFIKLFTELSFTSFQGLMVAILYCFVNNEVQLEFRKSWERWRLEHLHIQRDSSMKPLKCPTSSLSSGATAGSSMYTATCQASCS
Test: cell-based or functional assay

| EC50 (nM) GLP-1R, cAMP formation | Binder |
| --- | --- |
| 0.014 nM | B1 |
| 0.207 nM | B2 |
| 0.14 nM | B3 |
| 0.057 nM | B4 |
| 0.048 nM | B5 |
| 0.199 nM | B6 |
| 0.161 nM | B7 |
| 0.202 nM | B8 |
| 0.077 nM | B9 |
| 0.152 nM | B10 |
| 0.069 nM | B11 |
| 0.066 nM | B12 |
| 0.131 nM | B13 |
| 0.195 nM | B14 |
| 0.132 nM | B15 |
| 0.191 nM | B16 |
| 0.149 nM | B17 |
| 0.097 nM | B18 |
| 0.109 nM | B19 |
| 0.103 nM | B20 |
| 0.16 nM | B21 |

Molecular target: human glucagon receptor (Glucagon-R) (human, UniProt P47871 26-477)
Test: cell-based or functional assay

| EC50 (nM) GluR, cAMP formation | Binder |
| --- | --- |
| 26.4 nM | B1 |
| 0.147 nM | B2 |
| 0.124 nM | B3 |
| 13.3 nM | B4 |
| 0.483 nM | B5 |
| 0.123 nM | B6 |
| 0.133 nM | B7 |
| 0.18 nM | B8 |
| 0.15 nM | B9 |
| 0.147 nM | B10 |
| 0.103 nM | B11 |
| 0.091 nM | B12 |
| 0.389 nM | B13 |
| 0.193 nM | B14 |
| 0.11 nM | B15 |
| 0.213 nM | B16 |
| 0.108 nM | B17 |
| 0.116 nM | B18 |
| 0.053 nM | B19 |
| 0.151 nM | B20 |
| 0.24 nM | B21 |
